T1: HLA DQA1*0102:DQB1*0602, P01920
T1 chain 1: not shown
T1 chain 2: not shown

T2: HLA DQA1*0101:DQB1*0501
T2 chain 1: not shown
T2 chain 2: not shown

B1: Peptide #17 (Hemagglutinin fragment) (peptide)
peptide: ALNRGSGSGIITSDA
modifications: not checked
B2: Peptide #8 (Common CP sequence) (peptide)
peptide: IDPFKLLQNSQVVSL
modifications: not checked
B3: Peptide #7 (Common CP sequence) (peptide)
peptide: EKATNPIVPSFDMSN
modifications: not checked
B4: Peptide #2 (X181 NP fragment) (peptide)
peptide: RELILYDKEEMRRIWRQANNG
modifications: not checked
B5: Peptide #4 (X181 NP fragment) (peptide)
peptide: LILYDKEEMRRIWRQ
modifications: not checked
B6: Peptide #18 (Hemagglutinin fragment) (peptide)
peptide: ALSRGFGSGIITSNA
modifications: not checked
B7: Peptide #5 (Common CP sequence) (peptide)
peptide: VGKMIGGIGRFYIQM
modifications: not checked
B8: Peptide #6 (Common CP sequence) (peptide)
peptide: SGAAGAAVKGVGTMV
modifications: not checked
B9: Peptide #16 (Hemagglutinin fragment) (peptide)
peptide: AMERNAGSGIIISDT
modifications: not checked
B10: Peptide #13 (Reverse of #10) (peptide)
peptide: LTVAAWSVKTSPLNM
modifications: not checked
B11: Peptide #1 (X179-A NP fragment) (peptide)
peptide: RELILYDKEEIRRIWRQANNG
modifications: not checked

Molecular target: T1, HLA DQA1*0102:DQB1*0602, P01920
Assay: REVEAL class II binding assay (cell-free)
Binder B1 has an REVEAL 0 hrs (% of positive control signal) of 0, an REVEAL 24 hours (% of positive control signal) of 0 and a Stability index of 0. With B2 the REVEAL 0 hrs (% of positive control signal) was 0.1, the REVEAL 24 hours (% of positive control signal) was 0.1 and the Stability index was 0.1. B3 gave an REVEAL 0 hrs (% of positive control signal) of 0, an REVEAL 24 hours (% of positive control signal) of 0 and a Stability index of 0. B4 was tested, and the REVEAL 24 hours (% of positive control signal) was 0.5. Binder B5 has an REVEAL 0 hrs (% of positive control signal) of 0.5, an REVEAL 24 hours (% of positive control signal) of 0.4 and a Stability index of 0.6. Work on B6 yielded an REVEAL 0 hrs (% of positive control signal) of 0, an REVEAL 24 hours (% of positive control signal) of 0 and a Stability index of 0. In the case of B7, the REVEAL 0 hrs (% of positive control signal) is reported as 77.3, the REVEAL 24 hours (% of positive control signal) is reported as 52.3 and the Stability index is reported as 33. B8 showed an REVEAL 0 hrs (% of positive control signal) of 0.1, an REVEAL 24 hours (% of positive control signal) of 0.1 and a Stability index of 0.1. With B9 the REVEAL 0 hrs (% of positive control signal) was 0, the REVEAL 24 hours (% of positive control signal) was 0 and the Stability index was 0. B10 showed an REVEAL 0 hrs (% of positive control signal) of 0.9, an REVEAL 24 hours (% of positive control signal) of 0.4 and a Stability index of 0.2. B11 showed an REVEAL 0 hrs (% of positive control signal) of 24.4, an REVEAL 24 hours (% of positive control signal) of 16.9 and a Stability index of 11.1.

Molecular target: T2, HLA DQA1*0101:DQB1*0501
Assay: REVEAL class II binding assay (cell-free)
In the case of B1, the REVEAL 0 hrs (% of positive control signal) is reported as 0, the REVEAL 24 hours (% of positive control signal) is reported as 0 and the Stability index is reported as 0. For B2, the REVEAL 0 hrs (% of positive control signal) was 0, the REVEAL 24 hours (% of positive control signal) was 0 and the Stability index was 0. In the case of B3, the REVEAL 0 hrs (% of positive control signal) is reported as 0, the REVEAL 24 hours (% of positive control signal) is reported as 0 and the Stability index is reported as 0. For B4, the REVEAL 0 hrs (% of positive control signal) was 1.1 and the REVEAL 24 hours (% of positive control signal) was 1. B5 showed an REVEAL 0 hrs (% of positive control signal) of 0.1, an REVEAL 24 hours (% of positive control signal) of 0.1 and a Stability index of 0.1. For B6, the REVEAL 0 hrs (% of positive control signal) was 0, the REVEAL 24 hours (% of positive control signal) was 0 and the Stability index was 0. Binder B7 has an REVEAL 0 hrs (% of positive control signal) of 43.6, an REVEAL 24 hours (% of positive control signal) of 13.9 and a Stability index of 6.4. B8 showed an REVEAL 0 hrs (% of positive control signal) of 0, an REVEAL 24 hours (% of positive control signal) of 0 and a Stability index of 0. In the case of B9, the REVEAL 0 hrs (% of positive control signal) is reported as 0.1, the REVEAL 24 hours (% of positive control signal) is reported as 0.1 and the Stability index is reported as 0.1. Binder B10 has an REVEAL 0 hrs (% of positive control signal) of 0.3, an REVEAL 24 hours (% of positive control signal) of 0.3 and a Stability index of 0.4. Binder B11 has an REVEAL 0 hrs (% of positive control signal) of 27.8 and an REVEAL 24 hours (% of positive control signal) of 7.4.
